Values of other authors, collected in paper doi:10.1101/2024.07.26.605324.
“And” between values parts separate entries of the source, which are not always exact repeats. Equal values may be shown once.

Target: His27 (position 27, …)
Experiment: NMR
Details: 243–263 K; membrane-bound tetramer, wild type with both His19 and His27 tetrads

## MLEPFQILSICSFILSALHFIAWTIGHLNQIKR [Influenza B virus matrix protein 2 (BM2) proton channel (Influenza B virus)]
  pKa: 5.9±0.1 and 5.8±0.1
